From the NTF2 design screens of Basanta et al. (2020)

Test: protease stability score; higher = more stable; yeast display proteolysis, trypsin and chymotrypsin;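 further: relative to predicted unfolded state with 0 unfolded-like and 1 meaning tenfold more protease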

“DEHNKLAILIVEILWHLWETGNEEELVKLADPNYKHDVNGKISVGREEFEKTTHYLLNHLRFKHRHVRDEKVQGNKFHVDGQLNIDVNGREVRFDLRVVYIIVNGRLRSEHIDIV” showed a protease stability score of 1.71.
For “DEHQEEIKEMFRRMIHALETGDEDFFNHLADPHVLFHEHFNGRSFELHGREEFSKWLQSHREEIRLRNVHYHDIRIYNGVVHFDGRIVWHQGDKTIDRKVHWRTFVIDGRAKKVEIHVK”, the protease stability score was 0.621.
With “DEHQERIEEVLRDILEVLETGDWRKWHRLMDPHVLLIIFINGRKLSFHGMETVISHLQHEWRRVKGLQFELKHVELQGDYIHIDGHVRFNGQQTRIEIRIDIVDGKIHQLEFKFD” the protease stability score was 1.53.
With “DEHQERNRRALEEMNRILDTGDWEELTELADPHVRIHYGEFNLHGREDAHRFWKHIVERFKGIRVNIHDVKMVGNYVDVDGHLEIGDKEHKVRIIAFKINGRWLLHSMHFV” the protease stability score was 1.38.
With “DEHQKEIKEVVEMMRHAILTGDEETLERQMDPHAKIRINGVDYVGRRYLEILIRRVDHRRIHTRIRHVEIVDGRVITHLEERTVLHVGDKDIHVSHELEFVLLKIDGRWLVTEMIIQ” the protease stability score was 1.23.
With “DEHQRMLELFMRLLMHSQETGDEKTLRELADPNARIHVGDKDYVGREHAAKLLVEWRIHDLELRTVDVQGDKIQWEGELEGEYNGKQDRYETYIIVTKIDGRWLEERVIFK” the protease stability score was 1.3.
For “DEHREFAKHVLEALVRALETGDEDTIRELFDPNYRIEIGDKTVIGRKYWELFIRRVDHIEVHIIIRDFDVQGNKVIIRGDSHIHLNYDGRTLDIQHHVNFVIRKVDGKWVFHSEHFI”, the protease stability score was 1.79.
“DEHREIARRHTEVWWKLLLTGDEHLLRELADPHVRLETEHEEVHGREEVVRFLTEEIMKVKNIRLELKRIEVQGDKIDVEGTRHIDGVTIRVILYIHKINGRWVVQQIQLD” gave a protease stability score of 1.29.
“DEHRELEERMHELIQKANETGDWERWMELADPHTRLIVGDKEFHGMERSYEHILELFRRLGVERVEVRIERRDEQGEKINLDVIIIIGDKTIRLILIIYKVDGRWLLRSVEIR” gave a protease stability score of 1.63.
Work on “DEHRELIKEMLERFERSLRTGDEHIQTEMMDPDAKIDINGVELHGRDWASRYIQKYKNVRIEVRTITIQGDKVDIHSTIIIGDKHHSMIIHARKVDGKWVLEEMWVE” yielded a protease stability score of 0.613.
For “DEHRESLETALEIEIETMLTGDEDSFKRLADPHYRLDVNGVKYHGREAVRVYLEQFDYVEHIVSKDVLVQGDKVRWDVQLDGKYNGQRRRVRVDIISRKINGRWILEEIRIK”, the protease stability score was 0.748.
Sequence “DEHRKHAEDIFRLWLKAVKTGDEEHILDLMDPHVRLIILVGDKEIHLHGREEMKKENERLRHEWGVDRIRLEITRLDVQGDKIHSDGIDIFNGRNFRVKHHMKVVNGRVEEIKIEFE” has a protease stability score of 0.462.
Work on “DEHRKLIEELAEKLIEALWTGDERRIRELADPNVRMDYGEFKIHGRDLMVETLKHEMKKFKNVRLINHHVTVQGEFINIDMEVRFDGVSHRVEHNWDVVNGVVKEVRIEKN” yielded a protease stability score of 1.09.
“DEHRRELKEAIEMMLTALYTGDEKILLELIDPNTRLDVNGRELHGRDDWVEETRRIKNLKFHVHHIDVQGEKIHVDGLVIFNGRERRVHYNAEKYDGRWILTHINVR” gave a protease stability score of 1.22.
With “DEHTDAVETTWKRLLEDERTGNEDSLERLADPNYRVIINGKHYHGMEHSLHILSEWRITDHEIKDVEIQGEKAHIDGRFNGIIDGKHLNIHVLILIEKVDGRWIIKSVIFK” the protease stability score was -0.096.
In the case of “DEHTDMTRRLAELFRHLIETGNWKELTKLADPNMRLEVGDKEMHGREKLAELWRRIKNVRISIRRVEVQGEKVHLDLELDVDGQRQKFSEHIDIVDGVMRDVNVQWE”, the protease stability score is reported as 2.12.
“DEHTDYIREILRLLSEVVRTGDEDSLRRLLDPDARIVINGVDLIGMEHWFRLMFEIRHFAEDSKLEHSEVQGDKVIAHGRYHGEYEFDGRRRRHDTEVEMHVHKIDGRWYVRSLSIR” showed a protease stability score of 1.72.
Work on “DEHTEDTRHLEEFMLRAIKTGDEHILKRLMDPNARNEQGDKHQHGMEIIAEEWSRIKNVKVIFHRVRIQGDKIDVDGELIVNGVTMRVEFYSRKIDGRWVIHSVHFE” yielded a protease stability score of 1.17.
Work on “DEHTEEAKHWVTRFIHALSTGDFEQIERLADPHVRVEIGDKEIHGMEFLSEHVLKFKGIRTNIRHIEIHYYDGRVNVEVDIDIHIGDKTVNSELHIHIEKVDGRWVITSLHIRTR” yielded a protease stability score of 1.46.
“DEHTEHSKKLADLIMEWLKTGNEEILRKRMDPNTKIHIEVDGREENTHGWEEFERWLKELGIKHFELKHVHIQGDKSFVDGTLEVNGQRRRIIFIFIVVDGRIQSIRVIVI” gave a protease stability score of 2.12.
Work on “DEHTHEAHKFLREYWSNLQTGDEEKIINLVDPRVRMIINGKELHGREEFSKALHDEYRRMGMTIQTFTLQHLEIQGEKVHADVEIITHYDGRHTSIHLHLIVQKINGRWLMREVEIR” yielded a protease stability score of 1.32.
Sequence “DEHTHEIEHMLRHFLETLETGDEERYDRLADPHTRIDIGDKHLHGREKAQKLWRHWWKRFDHIHHLHIHHLEAVDGVNHVELREDIRVDGRRVIIRSLLILVVIDGRLREVRVEER” has a protease stability score of 0.496.
With “DEHTKEMKHFLKEWLHNFFTGNEERWAHLADPHVRSDINGVELHGWDLLFRKMRKHREDLGAPHIRDFHIHSMHVINGVIHIDGEIDVDVNGVRIRSRVEIHLNVVNGRNKSEHYHHI” the protease stability score was 0.68.
For “DEHTKFLEKLLRDWMESVLTGDEHLIKRYADPNVRLDFNGQQFHGRDSMVHLLKEWRIKHFKLDSFFAIDGVTFVDGESRGEVNGQETENRLHVEIFVVNGKVTHVKIRIL”, the protease stability score was 1.68.
For “DEHTKLLEDLVKILLFIRKTGDEDTFNKLFDPNVRLVQGDKTYHGRETFNKTMREWRIHHFEIKRSHFIGEWAEIDGHEDGDINGQKIRTDVEIILIIIDGRIKSIEYRPL”, the protease stability score was 0.929.
“DEHTRLMDRVSKELMHYRRTGDEHSLDHLLDPHVRLDQGDWEKHGMEEYIEFVRRVKNVKLRIHDITVDIVNGVVIVFIDGILHVNGVDITTRIHIYFRKVNGVWLVESLRYEVG” showed a protease stability score of 0.373.
“DEHTSRLERLAHLFFESWITGDFDALLKYLDPNVRIEQGDKHIHGREVMFEHLERLLKHWWFHEHRLRDVKSVNGVSHLHVHQRNEINGVELRYDFHIHLYIVDGRLKSMEFRIS” showed a protease stability score of 1.07.
With “DEIDEAIIEFFRLMLEWNETGDEEYIDTLIDPHTQLKIIYGDKDREFIGREEYFKIVLEWRIKEVRIHSIHTQGNKLNIDGEINGNIDGRDTKTRINIHFIVVNGRLKTITLRFE” the protease stability score was 2.43.
With “DEIDEISKQMVRDFVHSWRTGDWKVLRELADPHALIIFNGREFHGWEHILRVFLELIRRYKNARVDIEEVIVQGDKIHIHLRIDQGDKSHTVNIHIDIIDGKLKRLEIDVT” the protease stability score was 2.27.
“DEIDELMEMMARILIRLWQTGDEETWSRLADPDVRVTIGEFHTHGMERALLIIQEIRRHWRIHHIHIHDMRVFENRSRVNGKVDGEIDGQKDVRETRIEVVLIDGRLQEVRVKTK” showed a protease stability score of 0.91.
For “DEIDERLHFLMKRVLHLWETGDWDMWMNYADPHVRHEIIIGDKRYSLHGREEYAEELLRHHRHIRLHTIHITHIDVVNGRVELNGRVNGDINGQHVDVELYVELKVVDGRIESERMEFR”, the protease stability score was 0.412.
Work on “DEIDHRAREVAERILKSMLTGDFDTLRELMDPHVRVILSVNGRENHTVGREWFAHVVKEWIDRVDVHQIDVERVELQGEKVHMDTNLRIHYGDKSITRKTEIIIDVVDGRVHYVRFIIR” yielded a protease stability score of 2.52.
With “DEIDNELKTALRRLLHTWMTGDEDSLERLADPNVRFHQGDKDMHGREHMVKWFKEMIDRFPNLRIHDFIISEVRFFDGKAELIGTVLRTYGDKTDEVDFTIISTKIDGQWRIHEIRIN” the protease stability score was 1.26.
Work on “DEIEDELRTVYELTVKALTTGNEDLLRNYLDPDTRFIIDGRDLHGMDEINELWREWRIHIHDTKIHSIRTQGNFADVHGRLHGTFIFNGKIEHTTREVRLIFVKVNGRWVINSVVIR” yielded a protease stability score of 1.63.
“DEIEDHMREVREQLLRDLTTGDWKKMREMLDPHVRIHIGDFHDHGRESAEEWLRKFKGLTLRIHDVRVKIIDGRALVENDGELTYDGRRHRVRIHVYVTKVDGVWMVETLEIRIH” showed a protease stability score of 1.15.
With “DEIEEDMRKSIEDVIKAHLTGDEKTYRRLFDPHVRIDIDGVDFHGWEESRRMLQEIRISIEDWKIERMEIQGDKIHIDSRVDLTVYIDGKKERDTIERHIILVKFDGRWTIESVDFR” the protease stability score was 1.37.
Sequence “DEIEEEAKEMTKRILEDIKTGDEDSIFKLMDPNVKLVVGEKIHIGRETASKFFRKHWEDLGITRVESHLRTTHLIDGRVHVHSETNWNGVRIEVIIEIEKVNGRWVIREIHIHMH” has a protease stability score of 1.29.
In the case of “DEIEEEVRKFAEIHSRDLMTGNFESFREQADPHVRVIINGREFHGWHFLFHWLQEMRIHRVRIEDVRVYGDKAILDTRVESHVDGRTFDLEFKLVLSKVDGRWRVHQIILR”, the protease stability score is reported as 1.11.
With “DEIEEIAREIAKELHHLILTGDEDRLNELMDPNVKFESIVNGRRIESIGRENVKEVLRRLLEKLGLDRFSFIRRDIKYFDGVIHIFGQLEIDGVRHETEIIIFIVNGKVKSIRIRIQ” the protease stability score was 1.14.
With “DEIEEKIETHIKILLHASRTGDWELNSHNADPHTRIDIDGVELHGMEHFFTIMKEMRMKEYTLHHIEVQGEKIRIRGELRGEWDGKEEVVDVILIIVKIDGKWLIKEVRFR” the protease stability score was 1.07.
With “DEIEELSNRLLELLRHFLQTGDEDMLRKLMDPHVRIDIDGQDFHGRESAVKLLRFWIDHMRWKDRRLRHVRIQGNFIEIDTIEHGEINGREHDLTTHIIASKVNGRWVLHSILFR” the protease stability score was 1.81.
Sequence “DEIEEQSRRALHEYINKILTGDEKSLTDLMDPDARLIVGDKEVHGRKLVHEWMSQWTEHIRIKHVHLHDIEIIGEKVHLDMRLHGIINGKETEHKVELHMYKINGKWIIHTVKIL” has a protease stability score of 2.04.
With “DEIEERTKELMKIDLELLETGDEETLLHLLDPHVKIITWINGRRVQRVGRHIWVHWLRYLGIDHLHVDDVEVQGDKITFDMTIEINGRTHKAVLRSQVVDGKITSLEIEVR” the protease stability score was 1.63.
With “DEIEETIKHLMEEWETSMQTGDEDRIKELLDPHARLEIGEWEFIGRERVAHFLSRADHSEYRIRRIRMIGDKIDIRLEVRLHVNGREIRTETHLIILKINGRWFFKSTHIT” the protease stability score was 1.62.
With “DEIEEVFREYTERIVDMWKTGDEELTNRNMDPNARMRIDVNGRDLELHGRERWIEHFRELGIKYEEIRDVRLRLVGDKANLEIDGEVDVNGQKHHTSLIIHVEKINGKWVISRIIFFIR” the protease stability score was 1.2.
Work on “DEIEHAVRLAYERWLHEFETGDEEETLRNADPDTMIVINGRHLHGREHFTRWLKRIDHQHMHHEDFTHIDHQGDKLHLNVHVSIEVEINGVRYVLEHENEIVQTKIDGQWILTYIIIR” yielded a protease stability score of 1.25.
In the case of “DEIEHESEEILRMWLHAIKTGDEEFLKQYIDPHAKLDINGVEFHGREHIVRFIVELRMHDHRVQDSRKVGNKVILHTRVDSIIGDKRIDTHVTIIVRKIDGKWRLEEYRVS”, the protease stability score is reported as 2.55.
Sequence “DEIEHEVERVVREWMRAYITGDEDTLQHLLDPHVLSVIDGVNIHGMENVTEYLRRHLEKIKNVQIEDMRIHRLDIQGNKLDLDTRLHITFNGVPEVLETRLILTKIDGKWWMHQVIIN” has a protease stability score of 2.42.
Work on “DEIEHHDRIIHHLTLHAFFTGDESITEHLADPDVRLDIVQGDKFNHVIGREMVVQWLEEWWRRVKNARFRVHRVEVINGQVNLRVEVDINGKRVDFTLIIIVIDGKIRSQEVIFH” yielded a protease stability score of 1.67.
Work on “DEIEHLIRRIMEEIVHVFETGDEEKLEELMDPNTIFIIGDKRYVGREAVDVLLRRADVMTRFHIKSMRTVGDKIDLNTSIHVHFDGVHREIDTHVIARKVDGRWHWDSVRVE” yielded a protease stability score of 1.2.
